Sequences and labels used below:
T1: cynomolgus monkey CXCR6 (cynomolgus monkey, UniProt Q9BDS6 1-343)
T1 construct: also called cyno-CXCR6; cyno monkey CXCR6
T1 sequence: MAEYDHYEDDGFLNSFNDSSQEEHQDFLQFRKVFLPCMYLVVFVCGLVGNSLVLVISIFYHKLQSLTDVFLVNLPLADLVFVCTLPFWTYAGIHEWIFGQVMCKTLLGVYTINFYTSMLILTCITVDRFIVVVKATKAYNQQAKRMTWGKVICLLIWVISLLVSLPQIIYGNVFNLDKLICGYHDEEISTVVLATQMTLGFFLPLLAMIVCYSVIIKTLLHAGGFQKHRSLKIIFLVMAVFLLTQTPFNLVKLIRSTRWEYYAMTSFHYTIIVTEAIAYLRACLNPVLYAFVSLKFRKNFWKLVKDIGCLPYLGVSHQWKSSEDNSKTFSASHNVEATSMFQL

B1: CNE-6E5-C1 (antibody, V domains shown)
VH: QVTLKESGPGILQSSQILSLTCSFSGFSLITSGMGVSWIRKTSGKGLEWLAHIYWDDEKRYNPSLKSRLTISKGTSRNQVFLRITSVDTTDTATYFCVRREDFGDGFDYWGQGTTLTVSP
VL: DVLMTQAPLSLPVSLGDQASISCRSSQTIVHSNGVTYLEWYLQKPGQSPKLLIYKVSNRFSGVPDRFSGSGSGTYFTLKISRVEAEDLGVYYCFQGSHVPPTFGGGTKLEIK
notes: Mouse-derived; tested at the screening stage
B2: CNGs-3B2 (antibody, V domains shown)
VH: DVQLVESGGGLVQPGGSRTLSCAASGFTFSSFGMHWVRQAPEKGLEWVAYISSGSTTIYYADTVKGRFTISRDNPKNTLFLQVTSLRSEDTAVYYCTRSHWPYWYFDVWGAGTTVTVSS
VL: DVQITQSPSYLAASPGETITINCRASKSISKYLAWYQEKPGKTNKLLIYSGSTLQSGNPSRFSGSGSGTDFTLTISRLEPEDCAMYYCQQHNEFPWTFGGGTKLEIK
notes: as for B1
B3: Beacon2-F1 (antibody, V domains shown)
VH: EVQLVESGGDLVKPGGSLKLSCAASGFTFSSYGMSWVRQTPDKRLEWVATISSGGSYTYYPDSVKGRFPISRDNAKNTLYQQMSSLNSEDTAMYYCARLYGNYPYFAMDYWGQGTSVTVSS
VL: DIVMTQSQKFMSTSVGDRVSITCKASQNVGTAVAWYQQKPGQSPKLLIFSASNRYTGVPDRFTGSGSGTDFTLTISNMQSEDLADYFCQQYSSYPYTFGGGTKLEIK
notes: as for B1
B4: CNE-7B1 (antibody, V domains shown)
VH: QVQLQQSGPELVKPGTSVRISCKTSGYTFTSSYVHWVKRRPGQGLEWIGWIYPGNDYTKYNEKFKGKATLTADKSSSTAYMRLSSLASEDSAVYFCTRSYYGFDYWGQGTTLTVSS
VL: B1 VL with A7T, S26G, T28S, H31R, N33R, V35N, Y75D, P101Y
notes: as for B1
B5: CNGs-1E1-G5 (antibody, V domains shown)
VH: QVQLQQSGPELVKPGASVRISCKASGYTFTTSYIHWVKQRPGQGLEWIGWISPGNVNTRSNEKFKGKATLTADKSSNTAYMQLSSLTSEDSAVYFCAKSYFGFDFWGQGTTLTVSS
VL: B1 VL with A7T, T28S, V35N, L42V, F60S, Y75D, P101Y
notes: as for B1
B6: Genovac2-H2 (antibody, V domains shown)
VH: EVKLEESGGGLVRPGGSMKLSCVASGFTFSDYWMNWVRQSPEKGLEWLAQIRLNSGNYAARYAESVKGRFTISRDDSKNSVYLQMINLRAEDTGIYFCTSNAWLANWGQGTLVTVSA
VL: DIQMTQSPASLSVSVGETVTITCRASENIYNNLAWYQQKQGKSPQLLVYAATNLADGVPSRFSGSGSGTQYSLKINSLQSEDFGSYYCQHFWGTPWTFGGGTKLEIK
notes: as for B1
B7: Beacon1-A4 (antibody, V domains shown)
VH: EVQLQQSGPVLVKPGASVKMSCKTSGYTFTDYYMNWVKQSHGKSLEWIGVIKPYSGRTSYDQKFKDKATLTVDKSSSTAYMELNSLTSEDSAVYYCAREGVSITTVGSSLYYYPMDYWGQGTSVTVSS
VL: DIVLTQSPATLSVTPGASVSLSCRASQSISNNLHWYQQKSHESLRLLIKYASQSVSGIPSRFSGSGSGTDFTLTINSVETEDFGMYFCQQSNSWPRTFGGGTKLEIK
notes: as for B1
B8: Beacon2-A7 (antibody, V domains shown)
VH: EMKLEESGGGLVQPGGSMKLSCVASGFTFSNYWMSWVRQSPEKGLQWVGQIRLKSDNYATHYAESVKGKFTISRDDSKSSVYLQMNNLRAEDTGIYYCAPYSNWGYWGQGTTLTVSS
VL: DIVMTQAAPSIPVTPGGSVSISCRSTKSLLHTNGNTYLYWFLQRPGQSPQVLIYRMSNLASGVPDRFSGSGSGTAFTLRISRVEAEDVGVYYCMQYLEYPYTFGSGTKLEIK
notes: as for B1
B9: Genovac1-D12 (antibody, V domains shown)
VH: EVKLEESGGGLVQPGGSMKLSCVASGFTFSNYWMNWVRQSPEKGLKWVAQIRLKSDNYGTHYAESVKGRFTISRDDSKGSVYLQMNNLRAEDTGIYYCTSNAWFAYWGQGTLVTVSA
VL: DIVMTQAAPSVPVTPGESVSISCRSSKSLLHSNGNTYLFWFLQRPGQSPQRLISYMSNLASGVPDRFSGRGSGTDFTLRISRVEAEDVGVYYCLLSLEYPYTFGSGTRLEIT
notes: as for B1
B10: CNGs-1B7-E4 (antibody, V domains shown)
VH: EVQLVESGGGLVQPRGSLKLSCAASGFTFNTYAMNWVRQAPGNGLEWVARIRSKSYNYATYHAGSVKDRFTISRDDSQNMLYLQMNNLKTEDTAMYYCMRGQTYWGQGTLVTVSA
VL: DVVLTQTPLSLPVNIGDQASISCKSTKSLLNSDGFTYLDWHLQKPGQSPQLLIYLVSNRFSGVPDRFSGSGSGTDFTLKISRVEAEDLGVYYCFQSNYLPFTFGSGTKLEMK
notes: as for B1
B11: Beacon2-A3 (antibody, V domains shown)
VH: EVQIVESGGGLVQPKGSLKLSCAASGFSFNTYAMNWVRQAPGKGLEWVARIRTKRNNYVKFYADSVKDRFTISRDDSESMLYLQMNILKTEDTAMYYCVRQGAYWGQGTLVTVSA
VL: B10 VL with H41Y, Y92F, F101Y, S105G, M111I
notes: as for B1
B12: CNGs-3H2-B7 (antibody, V domains shown)
VH: EVQLVESGGGLVQPKGSLKLSCAASGVSFKTYAMTWVRQAPGKGLEWVARIRSKRYNYATYYADSVKDRFTISRDDSESMLYLQMNNLKTEDTAMYYCMRQGAYWGQGTLVTVSA
VL: B10 VL with H41Y, Q50H, M111I
notes: as for B1
B13: Beacon2-E5 (antibody, V domains shown)
VH: B11 VH with I4L, D68G, E78Q, I87N, T90A, M95I, Y104F
VL: B10 VL with H41Y, K79R, F101Y, S105G, M111I
notes: as for B1
B14: CNE-6E10 human/mouse chimeric antibody with human IgG1 Fc (antibody, V domains shown)
VH: EVQLVESGGGLVQPKGSLKLSCAASGFSFNTYAMNWVRQAPGKGLEWVARIRSKTNSYETYYADSVKDRFTISRDDSESMLYLQMNNLKTEDTAVYYCLSHGAFAYWGQGTLVTVSA
VL: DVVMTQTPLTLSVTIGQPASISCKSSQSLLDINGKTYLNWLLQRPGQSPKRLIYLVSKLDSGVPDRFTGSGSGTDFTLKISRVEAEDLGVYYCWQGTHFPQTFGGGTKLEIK
B15: chimeric COXs-1B10 (antibody, V domains shown)
VH: QVTLKESGPGILKASQTLSLTCSFSGFSLSTSGMGIGWIRQPSGKGPEWLAHIWWDDEKYYRPSLKSRLTVSKDTSRNQVFLNITSVDTTDSASYYCVQRTPGRFAYWGQGTLVTVST
VL: DIVMTQSPSSLAVSIGQKVIMSCKSSQSLLSSRTQKNYLAWYQQKPGQSPKLLVYFASIRESGVPDRFTGSGSGTDFTLTISTVQAEDLAVYYCQQYFLTPYTFGGGTKLEIK
notes: also called COXs-1B10 human chimeric mAb
B16: COXs-2D2 human/mouse chimeric antibody with human IgG1 Fc (antibody, V domains shown)
VH: EVQLVESGGGLVQPKGSLKLSCTASGFSFDTYAMNWVRQAPGKGLEWIARIRSKSKNYATYYADSVKDRFTISRDDSANILYLQMNNLKTEDTAIYYCLRQGSFDYWGQGTTLTVSS
VL: DVVLTQTPLSLPVSLGDQASISCRSGQRIVHTDGNTYLYWYLQKPGQSPKLLIYRVSNRFSGVPDRFSGSGSGTDFTLKISRVEAEDMGIYYCFQGTHFPYTFGGGTKLEIK

Substitutions are numbered along the chain they refer to.

The target of one assay is T1, cynomolgus monkey CXCR6. In words: screening on cells overexpressing CXCR6, one single concentration, yes/no.
Take B1: the binding result is “binds”.

For B2, the binding result is “binds”.

Turning to B3, the binding result is “binds”.

The next assay deals with T2, human CXCR6 (human, UniProt O00574 1-342).
T2 construct: also called hu-CXCR6; wild type human CXCR6
T2 sequence (O00574 whole entry): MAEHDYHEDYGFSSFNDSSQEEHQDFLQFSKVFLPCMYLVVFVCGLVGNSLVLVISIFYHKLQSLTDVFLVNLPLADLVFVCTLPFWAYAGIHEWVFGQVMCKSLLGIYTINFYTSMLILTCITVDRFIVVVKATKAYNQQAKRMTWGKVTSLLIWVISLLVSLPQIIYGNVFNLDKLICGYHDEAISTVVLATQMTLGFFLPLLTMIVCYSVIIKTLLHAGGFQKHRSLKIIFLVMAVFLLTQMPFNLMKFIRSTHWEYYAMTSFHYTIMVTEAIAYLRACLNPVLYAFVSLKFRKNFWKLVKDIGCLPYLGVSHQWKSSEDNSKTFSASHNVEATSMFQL
The description is as above.
For the molecule B1, the binding result was “binds”.

As for B4, the binding result is listed as “binds”.

On to B5, for which the binding result is recorded as “binds”.

B6: the binding result is “binds”.

In the case of B7, the binding result was “binds”.

On to B8, for which the binding result is reported as “binds”.

Consider B2, for which the binding result is given as “binds”.

B9: the binding result is “binds”.

With B10, the binding result was “binds”.

With B11, the binding result is recorded as “binds”.

Regarding B12, the binding result is recorded as “binds”.

With B13, the binding result is listed as “binds”.

As for B3, the binding result is given as “binds”.

The next assay deals with T2, human CXCR6. Put plainly: description of the chimeric clones used in the ADCC example.
Turning to B14, the binding result was “binds”.

For B15, the binding result is on record as “binds”.

In the case of B16, the binding result was “binds”.

Source of the values: patent US20240239907A1 (EDELWEISS IMMUNE, published 2024).
